Laboratory results from patent US20220403048A1, “BINDING MOLECULES TO ARGINASE II [ARG2]” (Cancer Research Technology Limited, priority 2019, published 2022).

Tests used:
ARG2 = target: T1, ARG2 (Homo sapiens, UniProt P78540); experiment: T cell proliferation assay (BrdU, 72 hours) with exogenous ARG2; format: cell-based; set-up: human ARG2 (aa23-354); His10 (C); made in house; host or cells: E. coli BL21 (DE3)
T1 sequence (P78540 23-354): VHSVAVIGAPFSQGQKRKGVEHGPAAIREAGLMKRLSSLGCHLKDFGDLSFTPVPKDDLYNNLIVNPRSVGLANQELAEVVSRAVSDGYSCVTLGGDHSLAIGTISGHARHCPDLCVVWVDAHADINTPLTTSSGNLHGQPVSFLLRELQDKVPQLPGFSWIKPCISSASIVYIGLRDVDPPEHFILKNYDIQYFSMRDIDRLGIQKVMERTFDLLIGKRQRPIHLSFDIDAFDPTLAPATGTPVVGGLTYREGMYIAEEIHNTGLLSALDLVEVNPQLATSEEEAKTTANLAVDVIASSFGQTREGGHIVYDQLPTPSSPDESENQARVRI
Protocol: This assay served to provide in vitro evidence of functional efficacy for each antibody.
Briefly, Leukocyte cones (NHS Blood and Transplant, Watford, UK) underwent Ficoll Plaque (GE, Sweden; Cat: 17-1440-02) gradient separation, PBMC's were extracted and pan T cell population isolated by negative selection using the Human T Cell Enrichment Kit (Stemcell Technologies, France; Cat: 19051) according to the manufacturer's instructions.
40000 cells/well were seeded in complete growth media (RMPI 1640, 5% Human Serum Albumin) into a 96 well clear TC treated microplate (Greiner-Bio One, Germany; Cat: 655180). T Cells were activated by the addition of ImmunoCult CD3/CD28 (Stemcell Technologies, France; Cat: 10971) at a dilution of 1:40 directly into wells and the plate incubated 37° C., 5% CO2 for 45 minutes.
To determine EC50's of test antibodies, a dilution series was created in sterile TBS at 8× the final assay concentration was added to the assay plate containing cells. Plate was incubated for 30 minutes at 37° C., 5% CO2.
ARG2 was added to relevant wells of the plate at a final concentration of 15 μg/ml. The equivalent volume of ARG2 vehicle and test antibody vehicle was added to relevant control wells. […]
Calculated data was expressed as % of control (Equation 3) and graphical plots were constructed using a four parameter fit and EC50's determined using model 205 in XLFit (IDBS, UK). […]

trimeric human ARG2 = target: T2, trimeric human ARG2 (Homo sapiens, UniProt P78540); experiment: Human trimeric ARG2 enzyme inhibition assay (urea production); format: biochemical
T2 construct: human ARG2 (aa23-354); His10 (C); made in house; host or cells: E. coli BL21 (DE3)
T2 sequence (P78540 23-354): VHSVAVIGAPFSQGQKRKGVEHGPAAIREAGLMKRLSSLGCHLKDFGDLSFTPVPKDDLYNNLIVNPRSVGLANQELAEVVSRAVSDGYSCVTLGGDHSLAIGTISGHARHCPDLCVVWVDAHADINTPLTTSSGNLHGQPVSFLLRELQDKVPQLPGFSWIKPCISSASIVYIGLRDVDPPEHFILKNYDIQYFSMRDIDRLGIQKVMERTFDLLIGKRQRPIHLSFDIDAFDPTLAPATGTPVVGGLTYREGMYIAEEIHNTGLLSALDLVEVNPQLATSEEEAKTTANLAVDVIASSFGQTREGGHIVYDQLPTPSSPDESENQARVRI
Protocol: Unpurified anti-ARG2 scFv fragments from periplasmic preparations were screened in an ARG2 enzyme inhibition assay using a Pherastar plate reader (BMG Labtech, Germany). In this assay, the ability of unpurified scFv to inhibit the enzymatic activity of trimeric ARG2 was determined by measuring the production of urea, the product of L-arginine turnover by ARG2.
Selection outputs were screened as unpurified bacterial periplasmic extracts containing scFv, prepared in 200 mM TES buffer pH 7.4, 0.5 mM EDTA and 0.5 M sucrose. 10 μl of unpurified scFv were added to a Greiner Bio-One® 384 well assay plate (Greiner Bio-one, UK; cat: 781901). This was followed by the addition of 5 μl of 1.6 μg/ml trimeric human ARG2 that had been diluted in 40 mM MnCl2, 100 mM tris-HCl, pH7.4 (4× enzyme buffer). […]
Urea was detected by the simultaneous addition of equal volumes of O-Phthaldialdehyde (1.5 mM O-Phthaldialdehyde, 7% H2SO4, 0.03% Brij L23) and N-(1-Napthyl)ethylenediamine (1.66 mM N-(1-Napthyl)ethylenediamine, 81 mM Boric acid, 21% H2SO4, 0.03% Brij L23) followed by an 18 minute incubation at room temperature before the colorimetric product was quantified on the Pherastar by measuring absorbance at 505 nm. […]
Data were analysed by calculating % maximum (max) control for each sample using the 505 nm absorbance data. % max control was determined according to equation 2. […]
IC50 values were determined by testing a dilution series of the purified scFv, prepared in TBS, in the ARG2 enzyme inhibition assay described in section 1.5, substituting the unpurified scFv periplasmic preparation with the purified scFv.
Background control wells were defined for each plate by the omission of substrate. […] Data were analysed by calculating % maximum (max) control for each sample. % max control was determined according to equation 1 detailed in section 1.5. […]
Data were again analysed by calculating % Max control values for each sample. […]

EC50 (ARG2; In Presence of rhARG2): > 2000 nM
Maximum % Proliferation (ARG2; In Presence of rhARG2, NHLA value at 0.444 mM): 49%
inhibition of the activity of human trimeric ARG2 (trimeric human ARG2; purified recombinant human IgG1, FIG. 3): inhibited
inhibition of the activity of human trimeric ARG2 (trimeric human ARG2; purified scFv, FIG. 2): inhibited
B1: C0020065: anti-ARG2 antibody, alternate lead isolation clone, VH SEQ ID NO: 2, VL SEQ ID NO: 7 (antibody, listed as Homo sapiens, V domains shown)
VH: GVNLRESGGGVVQPGRSLRLSCAASGFTFSSYAMHWVRQAPGKGLEWVAVISYDGSNKYYVDSVKGRFTISRDNSKNTLYLQMNSLRAEDTAVYYCARDSSQLWFDYWGRGTLVTVSS
VL: QSVVTQPPSVSGAPGQRVTISCTGSSSNIGTGYDVHWYQQLPGTAPKLLIYGNSNRPSGVPDRFSGSKSGTSASLAITGLQAEDEADYYCQSYDSSLSGSVVFGGGTQLTVL
modifications: C0020065
